Patent US20220144960A1 (NANJING LEGEND BIOTECH, published 2022)
Read-outs that look alike come from different tables or passages of the source.

Key:
[1] = target: T1, recombinant human CD30 extra cellular domain (ECD) protein (human, UniProt P28908 19-379); assay: SPR Biacore T200, scFv captured, 100.0 nM human CD30 as analyte, single curve; beyond off-rate detection limit
T1 construct: Bought from R&D systems; also called rhCD30; human CD30 ECD
T1 sequence: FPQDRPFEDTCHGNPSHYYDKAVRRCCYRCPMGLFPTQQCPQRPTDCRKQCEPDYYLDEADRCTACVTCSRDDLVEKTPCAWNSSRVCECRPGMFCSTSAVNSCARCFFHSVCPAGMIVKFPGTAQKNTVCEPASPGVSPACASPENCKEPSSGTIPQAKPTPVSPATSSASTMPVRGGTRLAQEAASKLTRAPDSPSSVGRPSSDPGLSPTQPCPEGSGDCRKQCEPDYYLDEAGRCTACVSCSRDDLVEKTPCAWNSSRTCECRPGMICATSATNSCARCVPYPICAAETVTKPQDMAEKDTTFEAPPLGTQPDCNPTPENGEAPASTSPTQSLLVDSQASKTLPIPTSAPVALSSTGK
Procedure: (§1) Some of these unique binders were subjected to for further characterization by surface plasmon resonance (SPR) on a BIAcore T200 instrument (GE Healthcare). The experiment was carried out as follows. The crude sdAb/Fab proteins were captured through an affinity tag (6×Histidine tag) onto the sensorchip. High-concentration (100.0 nM) of human CD30 (R&D systems, Cat. #6126-CD) flowed over the sensorchip surface, and were allowed to bind the antibody fragments for 300 s followed by injection of the running buffer to allow dissociation of the complex. On-rate ([…] and off-rate (kd) were roughly calculated based on one association and dissociation curve, and were used to estimate the equilibrium dissociation constant (KD). 5F11 scFv (SEQ ID NO:216, prepared according to WO2017066122) was used as a positive control. Data were summarized in Table 3 below. The first 10 antibodies in Table 3 were sdAbs with amino acid sequence ID numbers summarized in Table 1, the last antibody was 5F11 scFv, and the remainings were human Fabs with CDR and scFv amino acid sequence ID numbers in Table 2.

[2] = target: T1, recombinant human CD30 extra cellular …; assay: SPR Biacore T200, scFv captured, 100.0 nM human CD30 as analyte, single curve
Procedure: as §1

[3] = target: T1, recombinant human CD30 extra cellular …; assay: as above; remark: listed apart in the source
Procedure: as §1

[4] = target: T2, human CD30 CRD6 (E282-K379) Fc fusion protein with human IgG1 Fc fragment at the C terminus (human); assay: SPR, captured scFv, human IgG1 Fc-fused CRD protein as analyte
T2 construct: also called CRD6 construct
T2 sequence (chain, as listed by the source limits assumed): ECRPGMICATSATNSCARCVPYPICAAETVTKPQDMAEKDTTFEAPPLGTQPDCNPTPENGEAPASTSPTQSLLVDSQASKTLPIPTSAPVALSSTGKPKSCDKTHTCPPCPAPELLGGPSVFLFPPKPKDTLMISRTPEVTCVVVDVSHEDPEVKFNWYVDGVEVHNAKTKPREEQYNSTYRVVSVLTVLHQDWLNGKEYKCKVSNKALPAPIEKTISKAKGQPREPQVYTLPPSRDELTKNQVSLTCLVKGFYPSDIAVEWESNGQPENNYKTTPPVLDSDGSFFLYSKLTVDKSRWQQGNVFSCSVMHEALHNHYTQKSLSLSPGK
Procedure: as §1, with “2. […]” for “2.”

B1: 5F11 scFv (scFv)
scFv: DIQMTQSPTSLSASVGDRVTITCRASQGISSWLTWYQQKPEKAPKSLIYAASSLQSGVPSRFSGSGSGTDFTLTISSLQPEDFATYYCQQYDSYPITFGQGTRLEIKGSTSGSGKPGSGEGSTKGQVQLQQWGAGLLKPSETLSLTCAVYGGSFSAYYWSWIRQPPGKGLEWIGDINHGGGTNYNPSLKSRVTISVDTSKNQFSLKLNSVTAADTAVYYCASLTAYWGQGSLVTVSS
notes: Positive control; captured like the other fragments, tag not spelled out for it
koff [1]: < 1e-05 s⁻¹
Kd [2]: < 0.1 nM
Kd [3]: < 0.0862 nM
kon [3]: 120000 M⁻¹ s⁻¹
binding result [4]: binds
